Measurements: patent publication US20130039920A1 (SHANGHAI CANCER INSTITUTE, published 2013)
Values joined by “and” are separate entries in the source; they are usually repeats but may differ in a detail not shown here. Equal entries are not always repeated.

Key:
[1] = target: T1, recombinant EGFRvIII extracellular region protein (UniProt P00533 25-645); experiment: non-competitive ELISA on coated rEGFRvIIIex; derived from the affinity constant
T1 construct: extracellular domain; also called rEGFRvIIIex; rEGFRvIII
Procedure: (§1) After the coated buffer was removed, the plates were washed with PBS one time followed by adding with 350 μl of PBS containing 5% of skimmed milk powder and incubating overnight. Then the plates were washed with PBS twice. […] The plates were incubated with antibodies at 37° C. for 1 hour and washed thrice with PBS. Then the plates were added with 100 μL of HRP-labeled goat anti-mouse secondary antibodies, incubated at 37° C. for 1 hour and washed 5 times with PBS followed by incubation with ABTS substrate for 15 min. The absorbance value was determined at 405 nm with a microplate reader. The binding curve was drawn according to the absorbance values to obtain the antibody concentration at half-maximal OD value (OD50%).
(§2) The concentrations are substituted into the formula K=(n−1)/2 (nAb′−Ab) to calculate the affinity constant, wherein, Ab′ and Ab represent the OD50% antibody concentration (mol/L) when the concentrations of antigen is Ag′ and Ag, n=Ag/Ag′. Six K values were obtained by paired comparison and averaged to obtain the final value.

[2] = target: T1, recombinant EGFRvIII extracellular …; experiment: non-competitive ELISA, rEGFRvIIIex coated at 2.5 mg/L; antibody concentration at half-maximal OD
Procedure: as §1

[3] = target: T1, recombinant EGFRvIII extracellular …; experiment: non-competitive ELISA, rEGFRvIIIex coated at 5.0 mg/L; antibody concentration at half-maximal OD
Procedure: as §1

[4] = target: T1, recombinant EGFRvIII extracellular …; experiment: non-competitive ELISA, rEGFRvIIIex coated at 1.25 mg/L; antibody concentration at half-maximal OD
Procedure: as §1

[5] = target: T1, recombinant EGFRvIII extracellular …; experiment: non-competitive ELISA, rEGFRvIIIex coated at 0.625 mg/L; antibody concentration at half-maximal OD
Procedure: as §1

[6] = target: T1, recombinant EGFRvIII extracellular …; experiment: non-competitive ELISA on coated rEGFRvIIIex; average of six K values from paired coating concentrations
Procedure: as §1, §2

B1: monoclonal antibody 12H23 (antibody, V domains shown)
VH: DVQLQESGPGLVKPSQSLSLTCTVTAYSVTSDYAWNWIRQFPGNKLEWMGYISYSGTTRYNPSLKSRISITRDTSKNQFFLQLNSMTAEDTATYYCSRQGRGFPYWGQGTLVTVSA
VL: DILMTQSPSSMSVSLGDTVSITCHASQDINSNIGWLQQKPGKSFKGLIYHGTNLEDGVPSRFSGSGSGADYSLTISSLESEDFADYYCVQYAQFPWTFGGGTKLEIKR
notes: also called murine monoclonal antibody 12H23; clone 12H23
Kd [1]: 26 pM | EC50 [2]: 0.0025 µg/mL and 0.017 nM | EC50 [3]: 0.003 µg/mL and 0.02 nM | EC50 [4]: 0.0023 µg/mL and 0.015 nM | EC50 [5]: 2 ng/mL | Ka [6]: 3.8e+10 M⁻¹
